Measurements taken from US20200071378A1 (SHATTUCK LABS, published 2020).
One block for each binder: values may come before it.

How the values were obtained:
hOX40-His [1] = target: T1, hOX40-His (human, UniProt P43489 29-216, limits assumed); test: SPR (BioRad ProteOn XPR 360) per Example 5; FIG. 5 legend says biolayer interferometry (Octet); hOX40-His as ligand, analyte at 117.6 nM
T1 construct: also called human OX40
T1 sequence (looked up): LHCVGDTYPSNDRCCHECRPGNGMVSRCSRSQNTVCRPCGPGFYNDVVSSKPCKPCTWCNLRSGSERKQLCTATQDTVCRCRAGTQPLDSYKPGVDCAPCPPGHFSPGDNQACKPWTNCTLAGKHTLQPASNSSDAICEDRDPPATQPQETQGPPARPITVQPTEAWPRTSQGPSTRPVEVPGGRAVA

[2] = target: T2, human OX40 expressed on cells (Jurkat/hOX40) (human, UniProt P43489 29-277); test: flow cytometry on Jurkat/hOX40 cells
T2 construct: whole, on cells; also called Jurkat cells engineered to overexpress human OX40; OX40 present on the cell surface
T2 sequence (looked up): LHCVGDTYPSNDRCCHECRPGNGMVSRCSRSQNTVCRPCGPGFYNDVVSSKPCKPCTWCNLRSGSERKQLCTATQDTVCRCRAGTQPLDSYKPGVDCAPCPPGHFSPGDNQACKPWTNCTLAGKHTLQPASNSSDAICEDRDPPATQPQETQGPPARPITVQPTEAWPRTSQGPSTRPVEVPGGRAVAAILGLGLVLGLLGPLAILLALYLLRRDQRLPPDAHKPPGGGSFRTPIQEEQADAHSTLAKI
Procedure: For cell binding assays, immortalized cell lines were engineered to stably express human OX40 (Jurkat/hOX40). Increasing concentrations of the VSIG8-Fc-OX40L chimeric protein were incubated with the over-expressing (Jurkat/hOX40) cell line for two hours. Cells were collected, washed, and stained with antibodies for the detection of chimeric protein binding by flow cytometry.

human IgG (plate-bound) = target: T3, human IgG (plate-bound); test: ELISA, left panel; sheet header 'IgG ELISA, H&L Capture, Fc-HRP Detect'; paragraph 219: capture on plate-bound human IgG, detection with HRP-conjugated anti-human IgG antibody
T3 construct: Capture reagent as printed; It may in fact be an anti-human IgG antibody; also called hIgG
From the text: Specifically, the Fc portion of the chimeric protein was detected by capturing to a plate-bound human IgG and detecting via an HRP-conjugated anti-human IgG antibody (left panel of FIG. 3). The OX40 domain of the chimeric protein was detected by capturing to a plate-bound recombinant human OX40 protein and detecting via an anti-OX40-specific antibody (right panel of FIG. 3). It was observed that in ELISA assays, using the central Fc region to detect chimeric proteins tended to underestimate the actual protein content in a sample. Therefore, low level of the hVSIG8-Fc-OX40L chimeric protein was detected compared to standard in this assay.

hOX40-His [3] = target: T1, hOX40-His; test: SPR/Octet kinetics on hOX40-His, against the control Fc-OX40L
hOX40-His [4] = target: T1, hOX40-His; test: SPR (BioRad ProteOn XPR 360) per Example 5; FIG. 5 legend says biolayer interferometry (Octet); hOX40-His as ligand, analyte at 222.2 nM
[5] = target: T4, recombinant murine OX40-His (murine, UniProt P47741 20-211, limits assumed); test: biolayer interferometry, 'Octet Binding Affinities, Ligand: mouse OX40-His'; penta-His biosensors; Example 11 calls it SPR
T4 construct: Coated on penta-his biosensors; also called mOX40
T4 sequence (looked up): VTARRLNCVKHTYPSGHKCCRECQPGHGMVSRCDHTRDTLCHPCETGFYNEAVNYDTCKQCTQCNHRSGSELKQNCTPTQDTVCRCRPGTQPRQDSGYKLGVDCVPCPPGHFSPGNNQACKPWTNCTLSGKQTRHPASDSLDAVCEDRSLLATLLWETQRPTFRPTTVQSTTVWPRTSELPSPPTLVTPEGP

Kd (hOX40-His [1]): 0.767 nM
koff (hOX40-His [1]): 0.000254 s⁻¹
kon (hOX40-His [1]): 331000 M⁻¹ s⁻¹
EC50 [2]: ~30 nM
EC50 (read off the curve) (human IgG (plate-bound)): ~6 nM
fold slower off-rate than the Fc-OX40L protein (hOX40-His [3]): 10 fold
B1: human VSIG8-Fc-OX40L chimeric protein (Fc fusion)
chain: VRINGDGQEVLYLAEGDNVRLGCPYVLDPEDYGPNGLDIEWMQVNSDPAHHRENVFLSYQDKRINHGSLPHLQQRVRFAASDPSQYDASINLMNLQVSDTATYECRVKKTTMATRKVIVTVQARPAVPMCWTEGHMTYGNDVVLKCYASGGSQPLSYKWAKISGHHYPYRAGSYTSQHSYHSELSYQESFHSSINQGLNNGDLVLKDISRADDGLYQCTVANNVGYSVCVVEVKVSDSRRIGCPPCPAPEFLGGPSVFLFPPKPKDQLMISRTPEVTCVVVDVSQEDPEVQFNWYVDGVEVHNAKTKPREEQFNSTYRVVSVLTVLHQDWLSGKEYKCKVSSKGLPSSIEKTISNATGQPREPQVYTLPPSQEEMTKNQVSLTCLVKGFYPSDIAVEWESNGQPENNYKTTPPVLDSDGSFFLYSRLTVDKSRWQEGNVFSCSVLHEALHNHYTQKSLSLSLGKIEGRMDQVSHRYPRIQSIKVQFTEYKKEKGFILTSQKEDEIMKVQNNSVIINCDGFYLISLKGYFSQEVNISLHYQKDEEPLFQLKKVRSVNSLMVASLTYKDKVYLNVTTDNTSLDDFHVNGGELILIHQNPGEFCVL
notes: also called hVSIG8-Fc-OX40L

Kd (hOX40-His [4]): 61 nM
koff (hOX40-His [4]): 0.00254 s⁻¹
kon (hOX40-His [4]): 41700 M⁻¹ s⁻¹
B2: commercially-available single-sided human Fc-OX40L (Fc fusion, UniProt P23510 51-183, looked up)
chain: QVSHRYPRIQSIKVQFTEYKKEKGFILTSQKEDEIMKVQNNSVIINCDGFYLISLKGYFSQEVNISLHYQKDEEPLFQLKKVRSVNSLMVASLTYKDKVYLNVTTDNTSLDDFHVNGGELILIHQNPGEFCVL
notes: Bought control; also called hFc-OX40L; recombinant control protein; not shown: Fc part of a bought control protein, not described

binding result [5]: binds
B3: commercially-available mFc-OX40L (Fc fusion, murine, UniProt P43488 51-198, looked up)
chain: SSSPAKDPPIQRLRGAVTRCEDGQLFISSYKNEYQTMEVQNNSVVIKCDGLYIIYLKGSFFQEVKIDLHFREDHNPISIPMLNDGRRIVFTVVASLAFKDKVYLTVNAPDTLCEHLQINDGELIVVQLTPGYCAPEGSYHSTVNQVPL
notes: Bought control; Construct is not described; also called commercially-available recombinant control protein; not shown: Fc part of a bought control protein, not described
